One data set concerns cdc4Δ strain. As to the kind of experiment: plasmid shuffle assay: complementation of a cdc4Δ strain by CDC4 alleles. Format: cell-based, yeast. To be noted: viability of cdc4Δ strain on 5-FOA, 2 days at 30° C. The method in brief:
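Mutant CDC4 alleles on TRP1 CEN plasmids were shuffled into cdc4Δ strain MT 1259 carrying wild-type CDC4 on a URA3 plasmid, with growth on 5-FOA for 2 days at 30° C. Survivors were transformed with GAL1-SIC1 or phosphosite mutants and plated on glucose or galactose, 2 days at 30° C.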

Data set [1] deals with T1, phospho-Sic1 isoforms (Saccharomyces cerevisiae, UniProt P38634).
T1 construct: His6 (N); made in house; host or cells: bacteria (Sic1, Cdc4-GST-Skp1); insect cells (Cdc53-Rbx1)
T1 sequence (P38634 1-284): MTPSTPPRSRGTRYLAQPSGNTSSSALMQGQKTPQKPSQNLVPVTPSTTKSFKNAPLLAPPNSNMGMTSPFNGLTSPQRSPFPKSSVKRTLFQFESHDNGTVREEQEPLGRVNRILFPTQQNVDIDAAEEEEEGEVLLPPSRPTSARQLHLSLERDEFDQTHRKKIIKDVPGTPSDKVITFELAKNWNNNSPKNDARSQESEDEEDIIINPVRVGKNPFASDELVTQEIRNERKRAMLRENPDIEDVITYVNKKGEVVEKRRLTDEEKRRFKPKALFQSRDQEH
As to the kind of experiment: in vitro ubiquitination of phospho-Sic1 isoforms by wild type or mutant SCFCdc4 complex. The data set is classed as biochemical, yeast. To be noted: Cdc34, ubiquitin, ATP, 1 h at 30° C.

Data set [2] concerns phospho-Sic1 isoforms. As to the kind of experiment: IEF-2D gel analysis of Sic1 phospho-isoforms captured by wild type or mutant Cdc4-GST-Skp1. The data set is classed as binding, yeast. The settings on record: pool of Sic1 phosphorylated on 1 to 9 sites; listed as Wild type Cdc4. The protocol: Bacterially expressed His6-Sic1 was phosphorylated with Cln2-Cdc28 kinase purified from baculovirus infected Sf9 cells as described before (Nature paper). 1 ug of WT or mutant Cdc4-GST-Skp1, immoblized on GSH-Sepharose resin, was incubated with 0.5 ug phospho-Sic1 at 4 C for 1 h and washed 4 times. Captured complexes were resolved on SDS-PAGE and Sic1 visualized by anti-Sic1 Western blotting and ECL. For IEF-2D analysis, several Sic1 phosphorylation reactions were carried out for different time periods to obtain a spectrum of Sic1 that were phosphorylated at different numbers of its nine CDK sites. This pool of phospho-Sic1 (2.5 ug) was incubated with 5 μg of WT or mutant Cdc4-GST-Skp1 as described above. Different phosphorylation states of Sic1 were separated by denaturing isoelectric focusing (IEF)-2D gel electrophoresis and visualized by anti-Sic1 Western blotting and ECL. IEF was performed using pH 3-10NL Immobiline gel strips and IPGphore IEF system (Amersham pharmacia).
Cdc4 functional assays. CDC4 mutant alleles were assessed for complementation of a cdc4A strain in a plasmid shuffle assay (Nash et al., 2001). Sensitivity to SIC1 dosage was determined by transformation with pMT837 (GAL1-SIC1) or pMT767 (GAL1-SIC1^T33V) and plating on glucose medium or galactose medium. […]

The subject of data set [3] is cdc4Δ strain overexpressing SIC1. As to the kind of experiment: sensitivity to SIC1 dosage: GAL1-SIC1 overexpression in strains bearing CDC4 alleles. Format: cell-based, yeast. The settings on record: galactose, 2 days at 30° C. The method in brief: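 SIC1 dosage sensitivity: cdc4Δ strains carrying CDC4 mutant alleles (after plasmid shuffle) transformed with GAL1-SIC1 or GAL1-SIC1^T33V (also T45A), plated on glucose versus galactose medium for 2 days at 30 °C. Growth on galactose scored as tolerance of SIC1 overexpression.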

The next data set deals with phospho-Sic1. As to the kind of experiment: P-Sic1 pull down: in vitro capture of phospho-Sic1 on immobilized wild type or mutant Cdc4-GST-Skp1, anti-Sic1 immunoblot. The data set is classed as binding, yeast. The settings on record: Sic1 phosphorylated with Cln2-Cdc28, captured onto GST-Skp1/Cdc4 resin, anti-Sic1 detection. The method in brief:
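Bacterial His6-Sic1 phosphorylated by Cln2-Cdc28 from Sf9 cells; 0.5 μg phospho-Sic1 incubated with 1 μg immobilized wild-type or mutant Cdc4(263-744)-GST-Skp1 at 4° C for 1 h, washed four times. Bound Sic1 detected by anti-Sic1 immunoblot after SDS-PAGE.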
A general note: A western blot detects proteins with antibodies after separation by electrophoresis.

Here are results for one molecule from patent US20040171074A1, “Structures of substrate binding pockets of SCF complexes” (MOUNT SINAI HOSPITAL, priority 2002, published 2004).

B1: WT: wild type yeast Cdc4 F-box protein (protein, UniProt P07834 1-779, looked up)
Cell division control protein …: MGSFPLAEFPLRDIPVPYSYRVSGGIASSGSVTALVTAAGTHRNSSTAKTVETEDGEEDIDEYQRKRAAGSGESTPERSDFKRVKHDNHKTLHPVNLQNTGAASVDNDGLHNLTDISNDAEKLLMSVDDGSAAPSTLSVNMGVASHNVAAPTTVNAATITGSDVSNNVNSATINNPMEEGALPLSPTASSPGTTTPLAKTTKTINNNNNIADLIESKDSIISPEYLSDEIFSAINNNLPHAYFKNLLFRLVANMDRSELSDLGTLIKDNLKRDLITSLPFEISLKIFNYLQFEDIINSLGVSQNWNKIIRKSTSLWKKLLISENFVSPKGFNSLNLKLSQKYPKLSQQDRLRLSFLENIFILKNWYNPKFVPQRTTLRGHMTSVITCLQFEDNYVITGADDKMIRVYDSINKKFLLQLSGHDGGVWALKYAHGGILVSGSTDRTVRVWDIKKGCCTHVFKGHNSTVRCLDIVEYKNIKYIVTGSRDNTLHVWKLPKESSVPDHGEEHDYPLVFHTPEENPYFVGVLRGHMASVRTVSGHGNIVVSGSYDNTLIVWDVAQMKCLYILSGHTDRIYSTIYDHERKRCISASMDTTIRIWDLENIWNNGECSYATNSASPCAKILGAMYTLQGHTALVGLLRLSDKFLVSAAADGSIRGWDANDYSRKFSYHHTNLSAITTFYVSDNILVSGSENQFNIYNLRSGKLVHANILKDADQIWSVNFKGKTLVAAVEKDGQSFLEILDFSKASKINYVSNPVNSSSSSLESISTSLGLTRTTIIP
Turning to B1, in the data set on cdc4Δ strain, the shuffle result is “alive”. The “conversion of Sic1 phosphorylated on four or five sites to oligo-ubiquitinated species” value in the data set with phospho-Sic1 isoforms [1] was “unable”. In addition, in the data set on phospho-Sic1 isoforms [2], the “Sic1 phospho-isoforms captured (number of phosphorylated sites)” value is reported as “six or more sites”. In data set [3] (GAL1-SIC1 T33V (partially stabilized Sic1)), the “gal Sic1T33V” value is “alive”. Moreover, the “gal Sic1T45A” value in data set [3] (GAL1-SIC1 T45A) is listed as “dead”. Further, in data set [3] (GAL1-SIC1 wild type), the “gal Sic1 wt” value is “alive”. For the same molecule, in the data set with phospho-Sic1, the P-Sic1 pull down entry is recorded as “bind”.
